Drawing on US20150132254A1 (MIT, published 2015), this text covers binding result and Kd for eleven molecules.

Assay [1] concerns the target T1, soluble murine CD25 (His-tagged recombinant mouse IL-2Rα/CD25, R&D Systems) (mouse, UniProt P01590 22-236, limits assumed).
T1 construct: Bought reagent, described only as soluble and His-tagged; also called soluble CD25; mouse CD25
T1 sequence (looked up): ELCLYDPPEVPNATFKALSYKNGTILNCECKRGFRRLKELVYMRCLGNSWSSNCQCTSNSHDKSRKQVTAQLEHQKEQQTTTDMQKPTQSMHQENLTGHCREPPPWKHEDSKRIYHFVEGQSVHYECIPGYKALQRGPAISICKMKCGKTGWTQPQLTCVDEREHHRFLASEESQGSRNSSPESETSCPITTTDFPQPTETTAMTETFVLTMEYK
Put plainly: yeast surface display, titration with soluble murine CD25. On the procedure: The equilibrium dissociation constant of any particular clone was determined essentially as described (75). […] For picomolar affinity mutants of library 6.2, non-displaying EBY100 cells were spiked in at 90:10 to facilitate pelleting the low numbers of displaying cells. The equilibrium dissociation constant Kd was determined by fitting CD25 concentration and flow cytometry fluorescence data to the monovalent binding isotherm: […]

Assay [2] has as its target T1, soluble murine CD25 (His-tagged …). Put plainly: not stated (legend of the schematic FIG. 5).
The target is the same in assay [3]. Put plainly: yeast surface display, flow cytometry. The procedure: EBY100 yeast harboring each of these clones were grown and induced as described (Chao et al. Nat Protocols 2006; 1(2):755-768). CD25 binding capacity was determined by labeling induced yeast with 50 nM soluble murine CD25 (R&D Systems). Proper protein folding was determined by labeling yeast displaying IL-2 variants before and after thermal denaturation with anti-mouse IL-2 antibodies. […] Anti-mouse IL-2 antibodies used were S4B6 (gift of Jianzhu Chen Lab, MIT), JES6-1A12, and JES6-5H4 (eBioscience).

B1: mIL-2 QQ 6.2-8 (yeast-displayed) (ligand)
chain: APTSSSTSSSTAEAQQQQQQQQHLEQLLMDLQELLSRMEDHRNLRLPRMLTFKFYLPKQATELEDLQCLEDELEPLRQVLDLTQSKSFQLEDAENFISNIRVTVVKLKGSDNTFECQFDDEPATVVDFLRRWIAFCQSIISTSPR
notes: Selective-reversion mutant of a library 6.2 clone; also called reversion mutant
Regarding B1, in assay [1], the binding result is reported as “binds”.

B2: D265AFc/IL-2 (monovalent mouse IgG2a D265A Fc / wild-type mouse IL-2 heterodimer) (Fc fusion)
chain 1: EPRVPITQNPCPPLKECPPCAAPDLLGGPSVFIFPPKIKDVLMISLSPMVTCVVVAVSEDDPDVQISWFVNNVEVHTAQTQTHREDYNSTLRVVSALPIQHQDWMSGKEFKCKVNNRALPSPIEKTISKPRGPVRAPQVYVLPPPAEEMTKKEFSLTCMITGFLPAEIAVDWTSNGRTEQNYKNTATVLDSDGSYFMYSKLRVQKSTWERGSLFACSVVHEGLHNHLTTKTISRSLGKGGGSAPTSSSTSSSTAEAQQQQQQQQQQQQHLEQLLMDLQELLSRMENYRNLKLPRMLTFKFYLPKQATELKDLQCLEDELGPLRHVLDLTQSKSFQLEDAENFISNIRVTVVKLKGSDNTFECQFDDESATVVDFLRRWIAFCQSIISTSPQHHHHHH
chain 2: EPRVPITQNPCPPLKECPPCAAPDLLGGPSVFIFPPKIKDVLMISLSPMVTCVVVAVSEDDPDVQISWFVNNVEVHTAQTQTHREDYNSTLRVVSALPIQHQDWMSGKEFKCKVNNRALPSPIEKTISKPRGPVRAPQVYVLPPPAEEMTKKEFSLTCMITGFLPAEIAVDWTSNGRTEQNYKNTATVLDSDGSYFMYSKLRVQKSTWERGSLFACSVVHEGLHNHLTTKTISRSLGKGGGSDYKDDDDK
notes: also called D265A Fc/wt mIL-2
What is called Kd is the free concentration of one partner at which half of the binding sites on the other are occupied at equilibrium, for simple one-to-one binding. For the molecule B2, the Kd in assay [2] is about 50 nM.

B3: wild-type murine IL-2 (yeast-displayed) (ligand)
chain: APTSSSTSSSTAEAQQQQQQQQQQQQHLEQLLMDLQELLSRMENYRNLKLPRMLTFKFYLPKQATELKDLQCLEDELGPLRHVLDLTQSKSFQLEDAENFISNIRVTVVKLKGSDNTFECQFDDESATVVDFLRRWIAFCQSIISTSPQ
notes: Aga2p fusion with HA and c-myc tags; also called mIL-2; mouse IL-2
B3: the binding result in assay [3] was “binds”.

B4: mouse IL-2 E76R (yeast-displayed) (ligand)
chain: APTSSSTSSSTAEAQQQQQQQQQQQQHLEQLLMDLQELLSRMENYRNLKLPRMLTFKFYLPKQATELKDLQCLEDRLGPLRHVLDLTQSKSFQLEDAENFISNIRVTVVKLKGSDNTFECQFDDESATVVDFLRRWIAFCQSIISTSPQ
notes: also called E76 mutant
Turning to B4, in assay [3], the binding result is “no binding (tested: 5 or 50 nM soluble CD25)”.

B5: mIL-2 QQ 6.2-13 (yeast-displayed) (ligand)
chain: APTSSSTSSSTAEAQQQQQQQQQQQQHLEQLLMDLQELLSRMEDHRNLRLPRMLTFKFYLPEQATELKDLQCLEDELEPLRQVLDLTQSKSFQLEDAENFISNIRVTVVKLKGSDNTFECQFDDEPATVVDFLRRWIAFCQSIISTSPQ
notes: as for B1
In the case of B5, the binding result in assay [1] is listed as “binds”.

B6: mIL-2 QQ 6.2-10 (yeast-displayed) (ligand)
chain: APTSSSTSSSTAEAQQQQQQQQQQQQHLEQLLMDLQELLSRMEDHRNLRLPRMLTFKFYLPEQATELEDLQCLEDELEPLRQVLDLTQSKSFQLEDAENFISNIRVTVVKLKGSDNTFECQFDDEPATVVDFLRRWIAFCQSIISTSPQ
notes: also called reversion mutant
On to B6, for which the binding result in assay [1] is “binds”.

B7: mouse IL-2 E76A (yeast-displayed) (ligand)
chain: APTSSSTSSSTAEAQQQQQQQQQQQQHLEQLLMDLQELLSRMENYRNLKLPRMLTFKFYLPKQATELKDLQCLEDALGPLRHVLDLTQSKSFQLEDAENFISNIRVTVVKLKGSDNTFECQFDDESATVVDFLRRWIAFCQSIISTSPQ
notes: also called E76A IL-2
Consider B7, for which, in assay [3], the binding result is “no binding (tested: 50 nM)”.

B8: mouse IL-2 E76G (yeast-displayed) (ligand)
chain: APTSSSTSSSTAEAQQQQQQQQQQQQHLEQLLMDLQELLSRMENYRNLKLPRMLTFKFYLPKQATELKDLQCLEDGLGPLRHVLDLTQSKSFQLEDAENFISNIRVTVVKLKGSDNTFECQFDDESATVVDFLRRWIAFCQSIISTSPQ
notes: also called E76G IL-2
Regarding B8, the binding result in assay [3] is “no binding (tested: 50 nM)”.

B9: mouse IL-2 E76F (yeast-displayed) (ligand)
chain: APTSSSTSSSTAEAQQQQQQQQQQQQHLEQLLMDLQELLSRMENYRNLKLPRMLTFKFYLPKQATELKDLQCLEDFLGPLRHVLDLTQSKSFQLEDAENFISNIRVTVVKLKGSDNTFECQFDDESATVVDFLRRWIAFCQSIISTSPQ
notes: also called E76 mutant
As for B9, the binding result in assay [3] was “no binding (tested: 5 or 50 nM soluble CD25)”.

B10: mIL-2 QQ 6.2-4 (yeast-displayed) (ligand)
chain: APTSSSTSSSTAEAQQQQQQQQQQQQHLEQLLMDLQELLSRMEDSRNLRLPRMLTFKFYLPKQATELEDLQCLEDELEPLRQVLDLTQSKSFQLEDAENFISNIRVTVVKLKGSDNTFECQFDDEPATVVGFLRRWIAFCQSIISTSPQ
notes: as for B1
As for B10, the binding result in assay [1] is on record as “binds”.

B11: mIL-2 QQ 6.2-11 (yeast-displayed) (ligand)
chain: APTSSSTSSSTAEAQQQQQQQQQHLEQLLMDLQELLSRMEDSRNLRLPRMLTFKFYLPEQATELKDLQCLEDELEPLRQVLDLTQSKSFQLEDAENFISNIRVTVVKLKGSDNTFECQFDDEPATVVDFLRRWIAFCQSIISTSPQ
notes: as for B1
Take B11: in assay [1], the binding result is reported as “binds”.
